In patent US20250369982A1 (INCENDIATHERAPEUTICS, published 2025):
Read-outs that look alike come from different tables or passages of the source.

What was measured:
[1] = target: T1, mouse DDR1 extracellular domain (mouse, UniProt Q03146 22-415); experiment: SPR
T1 construct: extracellular domain
T1 sequence (looked up): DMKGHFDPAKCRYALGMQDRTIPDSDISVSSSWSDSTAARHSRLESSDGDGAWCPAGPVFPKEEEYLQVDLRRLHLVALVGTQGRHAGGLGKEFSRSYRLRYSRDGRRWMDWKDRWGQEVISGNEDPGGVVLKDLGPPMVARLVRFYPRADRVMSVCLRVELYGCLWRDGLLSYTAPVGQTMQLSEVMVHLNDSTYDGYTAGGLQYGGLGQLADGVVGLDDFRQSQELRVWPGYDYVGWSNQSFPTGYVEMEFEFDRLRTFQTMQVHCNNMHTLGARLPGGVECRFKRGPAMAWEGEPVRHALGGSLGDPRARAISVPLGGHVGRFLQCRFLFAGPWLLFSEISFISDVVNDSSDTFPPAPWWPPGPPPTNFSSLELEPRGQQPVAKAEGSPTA

[2] = target: T2, DDR1 on T47D breast cancer cells (human, UniProt Q08345 19-913); experiment: cell-based or functional assay
[3] = target: DDR1 overexpressed on HEK293 cells (Homo sapiens (Human), UniProt Q08345 19-913); experiment: cell-based or functional assay
[4] = target: T2, DDR1 on T47D breast cancer cells; experiment: cell-based or functional assay; remark: listed apart in the source
[5] = target: T2, DDR1 on T47D breast cancer cells; experiment: cell-based or functional assay; remark: listed apart in the source

T2 sequence (Q08345 19-913 limits assumed, stated change not applied): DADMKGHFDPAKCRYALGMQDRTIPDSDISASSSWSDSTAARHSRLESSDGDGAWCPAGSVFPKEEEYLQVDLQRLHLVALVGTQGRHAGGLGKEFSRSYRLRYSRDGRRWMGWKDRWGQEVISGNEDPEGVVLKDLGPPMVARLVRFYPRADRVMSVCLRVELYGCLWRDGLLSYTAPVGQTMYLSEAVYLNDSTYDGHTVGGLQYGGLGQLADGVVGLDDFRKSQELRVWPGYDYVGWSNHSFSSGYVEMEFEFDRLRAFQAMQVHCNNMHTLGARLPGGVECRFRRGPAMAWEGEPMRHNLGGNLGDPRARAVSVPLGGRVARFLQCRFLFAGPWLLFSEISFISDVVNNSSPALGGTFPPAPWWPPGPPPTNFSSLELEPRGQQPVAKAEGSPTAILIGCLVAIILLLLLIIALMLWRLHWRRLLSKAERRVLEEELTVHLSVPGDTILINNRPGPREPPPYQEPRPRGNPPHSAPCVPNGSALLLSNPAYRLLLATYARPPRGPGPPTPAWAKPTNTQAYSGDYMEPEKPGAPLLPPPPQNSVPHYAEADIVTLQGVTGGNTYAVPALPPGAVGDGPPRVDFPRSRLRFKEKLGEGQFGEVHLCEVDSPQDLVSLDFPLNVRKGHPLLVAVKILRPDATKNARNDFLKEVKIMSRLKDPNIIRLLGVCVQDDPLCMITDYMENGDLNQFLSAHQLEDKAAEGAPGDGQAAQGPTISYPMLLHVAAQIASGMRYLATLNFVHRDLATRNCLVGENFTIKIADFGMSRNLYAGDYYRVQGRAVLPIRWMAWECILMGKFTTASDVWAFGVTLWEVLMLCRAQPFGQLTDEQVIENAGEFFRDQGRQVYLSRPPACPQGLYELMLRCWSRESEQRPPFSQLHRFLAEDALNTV
Sequence of DDR1 overexpressed on HEK293 cells (Q08345 19-913 limits assumed): as the sequence (Q08345 19-913 limits assumed, stated change not applied) above

B1: mAb #9H1 WT IgG1 Fc (antibody)
heavy: not shown
light: DIQMTQSPSSVSASVGDRVTITCQASQSIGSVLAWYQQKPGKAPKLLISGVFDLASGVPSRFSGSGSGTDFTLTISSLQPEDFATYYCQYIPYGSSPFGGGTKVEIKRTVAAPSVFIFPPSDEQLKSGTASVVCLLNNFYPREAKVQWKVDNALQSGNSQESVTEQDSKDSTYSLSSTLTLSKADYEKHKVYACEVTHQGLSSPVTKSFNRGEC
notes: also called humanized mAb #9H1 with wt IgG1Fc
[1]
  Kd: 17.6 nM
[2]
  IC50 for inhibiting Collagen I-induced phosphorylation of DDR1 in T47D cells: 0.05 to 0.06 µg/mL
[3]
  IC50 for 9H1-WT inhibition of DDR1 OE cell adhesion to collagen I-coated plates: ~0.065 µg/mL
[4]
  IC50, inhibition of human collagen I (50 µg/ml)-induced DDR1 phosphorylation in T47D cells (pDDR1 normalised with vinculin), single experiment; unit taken from the axis [9H1] (µg/ml): 0.09 µg/ml
[5]
  IC50, inhibition of human collagen I (50 µg/ml)-induced DDR1 phosphorylation in T47D cells (pDDR1 normalised with vinculin), single experiment; unit taken from the axis [9H1] (µg/ml): 0.05 µg/ml

B2: mAb #9H1 inert IgG1 Fc (antibody)
heavy: QVQLVESGGRVVQPGRSLRLSCTASGFSLNRYYMLWVRQAPGKGLEWIGTISYGDTTYYASWAKGRFTISRDNSKNTLYLQMNSLRAEDTAVYYCARADTGDNGYLGLQLWGQGTLVTVSSASTKGPSVFPLAPSSKSTSGGTAALGCLVKDYFPEPVTVSWNSGALTSGVHTFPAVLQSSGLYSLSSVVTVPSSSLGTQTYICNVNHKPSNTKVDKRVEPKSCDKTHTCPPCPAPEAEGAPSVFLFPPKPKDTLMISRTPEVTCVVVDVSHEDPEVKFNWYVDGVEVHNAKTKPREEQYNSTYRVVSVLTVLHQDWLNGKEYKCKVSNKALPSSIEKTISKAKGQPREPQVYTLPPSREEMTKNQVSLTCLVKGFYPSDIAVEWESNGQPENNYKTTPPVLDSDGSFFLYSKLTVDKSRWQQGNVFSCSVMHEALHNHYTQKSLSLSPGK
light: DIQMTQSPSSVSASVGDRVTITCQASQSIGSVLAWYQQKPGKAPKLLISGVFDLASGVPSRFSGSGSGTDFTLTISSLQPEDFATYYCQYIPYGSSPFGGGTKVEIKRTVAAPSVFIFPPSDEQLKSGTASVVCLLNNFYPREAKVQWKVDNALQSGNSQESVTEQDSKDSTYSLSSTLTLSKADYEKHKVYACEVTHQGLSSPVTKSFNRGEC
notes: No sentence equates the two names; also called humanized mAb #9H1 with inert IgG1Fc; humanized DDR1-9 1 inert IgG1 Fc
[1]
  Kd: 19 nM

B3: mAb #33 inert IgG1 Fc (antibody, V domains shown)
VH: QSVEESGGRLVTPGGSLTLTCTVSGFSLSSYDMSWVRQAPGKGLEWIGISWNSGFVDYASWAKGRFSISKTSTTVDLKITSPTTEDTATYFCARLGADDIYYFNLWGPGTLVTISS
VL: ELVMTQTPASVEAAVGGTVTIKCQASETISSRLAWYQQKPGQPPKLLIYQASKLPSGVPSRFKGTGSGTEYTLTISDLECADAATYYCQGCYYGGGSFYDSAFGGGTEVVVKR
notes: also called chimeric rabbit/human mAb #33 with inert IgG1 Fc; chimeric mAb #33
[1]
  Kd: 1.01 nM
  koff: 0.00106 s⁻¹
  kon: 1.05e+06 M⁻¹ s⁻¹
